# Source: paper PMC11466962, “Nup358 restricts ER-mitochondria connectivity by modulating mTORC2/Akt/GSK3β signalling” (EMBO Reports, 2024)
# Target: T1, GST-Nup358-MC2 (2012–2771 aa) (human, UniProt P49792 2012-2771)
# T1 construct: also called GST-tagged Nup358-MC2; source: E. coli BL21 CodonPlus RIL (DE3), purified (Glutathione Agarose Beads)
# Assay: co-IP; in vitro: 2 µM MBP protein incubated with 1.5 µM GST-Nup358-MC2 in 25 mM Tris-HCl pH 7.4, 150 mM NaCl, 5% glycerol, 0.01% Tween20, 2 h, 4 °C; MBP proteins immunoprecipitated with anti-MBP antibody on Protein G Dynabeads; western blot for Nup358-MC2
# Details: both partners purified
# T1 sequence (P49792 2012-2771): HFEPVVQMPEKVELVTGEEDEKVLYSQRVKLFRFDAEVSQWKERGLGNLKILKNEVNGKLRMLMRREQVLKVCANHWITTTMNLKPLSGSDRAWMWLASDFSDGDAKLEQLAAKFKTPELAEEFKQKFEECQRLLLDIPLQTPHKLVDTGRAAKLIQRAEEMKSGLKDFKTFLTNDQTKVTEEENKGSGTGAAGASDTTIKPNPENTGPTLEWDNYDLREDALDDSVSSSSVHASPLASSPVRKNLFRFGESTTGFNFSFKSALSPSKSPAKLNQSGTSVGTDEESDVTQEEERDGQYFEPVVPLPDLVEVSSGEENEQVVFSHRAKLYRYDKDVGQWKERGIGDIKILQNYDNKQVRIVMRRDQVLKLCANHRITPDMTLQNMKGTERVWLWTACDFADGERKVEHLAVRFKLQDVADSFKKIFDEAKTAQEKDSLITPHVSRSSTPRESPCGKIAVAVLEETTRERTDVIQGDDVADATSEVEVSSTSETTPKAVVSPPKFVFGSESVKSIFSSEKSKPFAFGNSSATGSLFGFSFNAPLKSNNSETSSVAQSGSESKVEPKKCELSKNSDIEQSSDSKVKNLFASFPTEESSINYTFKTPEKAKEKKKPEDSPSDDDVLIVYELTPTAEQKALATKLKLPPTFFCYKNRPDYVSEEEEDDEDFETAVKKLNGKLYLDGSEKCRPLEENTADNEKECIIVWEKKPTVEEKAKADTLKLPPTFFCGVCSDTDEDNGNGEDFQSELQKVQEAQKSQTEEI
binder,measurement,value
"MBP-PTPIP51 (36–470 aa) (domain or fragment, UniProt Q96TC7 36-470, looked up, PTPIP51 (RMDN3), residues 36-470, cloned into pMAL-c2; source: E. coli BL21 Star (DE3), purified (Ni-NTA, Amylose resin); not shown: MBP, N-terminal, kept) KRTQRHGRSQSLPNSLDYTQTSDPGRHVMLLRAVPGGAGDASVLPSLPREGQEKVLDRLDFVLTSLVALRREVEELRSSLRGLAGEIVGEVRCHMEENQRVARRRRFPFVRERSDSTGSSSVYFTASSGATFTDAESEGGYTTANAESDNERDSDKESEDGEDEVSCETVKMGRKDSLDLEEEAASGASSALEAGGSSGLEDVLPLLQQADELHRGDEQGKREGFQLLLNNKLVYGSRQDFLWRLARAYSDMCELTEEVSEKKSYALDGKEEAEAALEKGDESADCHLWYAVLCGQLAEHESIQRRIQSGFSFKEHVDKAIALQPENPMAHFLLGRWCYQVSHLSWLEKKTATALLESPLSATVEDALQSFLKAEELQPGFSKAGRVYISKCYRELGKNSEARWWMKLALELPDVTKEDLAIQKDLEELEVILRD",binding result,binds
